Reference: patent US20140017212

Legend:
Test in all cases: cell_activity
ZFN SBS35396 = conditions: Cel-I, paired with 35361; 31 and 29% in HepG2-C3a (Table 10)
ZFN SBS35393 = conditions: Cel-I, paired with 35370
ZFN SBS35399 = conditions: Cel-I, paired with 35361
ZFN SBS35405 = conditions: Cel-I, paired with 35370
ZFN SBS35398 = conditions: Cel-I, paired with 35361
ZFN SBS35394 = conditions: Cel-I, paired with 35364
ZFN SBS35379 = conditions: Cel-I, paired with 35393
ZFN SBS35364 = conditions: Cel-I, paired with 35394
ZFN SBS35361 = conditions: Cel-I, paired with 35396; 31 and 29% in HepG2-C3a (Table 10)
ZFN SBS35370 = conditions: Cel-I, paired with 35405
TALEN 102263 = conditions: C63, with 102261, HepG2-C3a
ZFN SBS35426 = conditions: Cel-I, paired with 35480
ZFN SBS35428 = conditions: Cel-I, paired with 35480
TALEN 102252 = system: TALEN 102252
TALEN 102265 = system: TALEN 102265
TALEN 102257 = system: TALEN 102257
TALEN 102260 = system: TALEN 102260
TALEN 102271 = conditions: C17, with 102269, HepG2-C3a
ZFN SBS34931 = conditions: HepG2-C3a, paired with 33940
TALEN 102259 = system: TALEN 102259
TALEN 102264 = conditions: C63, with 102261, HepG2-C3a
TALEN 102268 = system: TALEN 102268
TALEN 102269 = conditions: C17, with 102271, HepG2-C3a
TALEN 102253 = system: TALEN 102253
ZFN SBS33940 = conditions: HepG2-C3a, paired with 34931
TALEN 102258 = system: TALEN 102258
TALEN 102250 = system: TALEN 102250
TALEN 102266 = conditions: C17, with 102268, HepG2-C3a
ZFN SBS35458 = conditions: Cel-I, paired with 35428; 10 and 7% with 35426 in HepG2-C3a (Table 10)
ZFN SBS35480 = conditions: Cel-I, paired with 35426
TALEN 102256 = system: TALEN 102256
TALEN 102261 = conditions: C63, with 102264, HepG2-C3a
TALEN 102249 = system: TALEN 102249
TALEN 102255 = system: TALEN 102255
TALEN 102267 = system: TALEN 102267
TALEN 102254 = system: TALEN 102254
TALEN 102251 = conditions: C17, with 102249, HepG2-C3a
TALEN 102262 = conditions: C63, with 102264, HepG2-C3a

“CCTATCCATTGCACTATGCTTTATTTAA (double strand) [locus 2 right site]” gave an activity (% mutated targets) (ZFN SBS35396) of 25, an activity (% mutated targets) (ZFN SBS35393) of 21 and an activity (% mutated targets) (ZFN SBS35399) of 23. For the same sequence, the activity (% mutated targets) (ZFN SBS35405) was 23, the activity (% mutated targets) (ZFN SBS35398) was 22 and the activity (% mutated targets) (ZFN SBS35394) was 24.
In the case of “TTTGGGATAGTTATGAATTCAATCTTCA (double strand) [locus 2 left site]”, the activity (% mutated targets) (ZFN SBS35379) is reported as 21, the activity (% mutated targets) (ZFN SBS35364) is reported as 24 and the activity (% mutated targets) (ZFN SBS35361) is reported as 25. For the same sequence, the activity (% mutated targets) (ZFN SBS35370) was 23.
In the case of “CTAATACTCTTTTAGTGTCT (double strand) [102263 site]”, the activity (% modification) (TALEN 102263) is reported as 16.
“TTGTGGTTTTTAAATAAAGCATAGTGCA (double strand) [locus 3 left site]” gave an activity (% mutated targets) (ZFN SBS35426) of 7 and an activity (% mutated targets) (ZFN SBS35428) of 6.
In the case of “ATAGTGCAATGGATAGGTC (double strand) [102252 site]”, the activity (% modification) (TALEN 102252; C17, with 102250, HepG2-C3a) is reported as 32 and the activity (% modification) (TALEN 102252; C63, with 102249, HepG2-C3a) is reported as 8.3.
With “ATAATTGAACATCATCCTG (double strand) [102265 site]” the activity (% modification) (TALEN 102265; C17, with 102267, HepG2-C3a) was 47 and the activity (% modification) (TALEN 102265; C63, with 102267, HepG2-C3a) was 9.8.
With “CTATGCTTTATTTAAAAAC (double strand) [102257 site]” the activity (% modification) (TALEN 102257; C17, with 102259, HepG2-C3a) was 18 and the activity (% modification) (TALEN 102257; C63, with 102259, HepG2-C3a) was 15.
For “CTATTTATGAGATCAACAGCA (double strand) [102260 site]”, the activity (% modification) (TALEN 102260; C17, with 102258, HepG2-C3a) was 24 and the activity (% modification) (TALEN 102260; C63, with 102257, HepG2-C3a) was 13.
“TTATGCATTTGTTTCAAAA (double strand) [102271 site]” gave an activity (% modification) (TALEN 102271) of 14.
With “ACCAAGAAGACAGACTAAAATGAAAATA (double strand) [34931 site]” the activity (% modification) (ZFN SBS34931) was 7.3.
Work on “ATTTATGAGATCAACAGCACA (double strand) [102259 site]” yielded an activity (% modification) (TALEN 102259; C17, with 102257, HepG2-C3a) of 18 and an activity (% modification) (TALEN 102259; C63, with 102257, HepG2-C3a) of 15.
For “ATCTAATACTCTTTTAGTGTC (double strand) [102264 site]”, the activity (% modification) (TALEN 102264) was 22.
Work on “ATATTGGGCTCTGATTCCT (double strand) [102268 site]” yielded an activity (% modification) (TALEN 102268; C17, with 102266, HepG2-C3a) of 10 and an activity (% modification) (TALEN 102268; C63, with 102265, HepG2-C3a) of 7.9.
“TTTTTCTGTAGGAATCAGA (double strand) [102269 site]” showed an activity (% modification) (TALEN 102269) of 14.
For “ATTGAATTCATAACTATCC (double strand) [102253 site]”, the activity (% modification) (TALEN 102253; C17, with 102255, HepG2-C3a) was 38 and the activity (% modification) (TALEN 102253; C63, with 102256, HepG2-C3a) was 23.
“CTGTTGATAGACACTAAAAGAGTATTAG (double strand) [33940 site]” showed an activity (% modification) (ZFN SBS33940) of 7.3.
“CTATGCTTTATTTAAAAACCA (double strand) [102258 site]” was tested, and the activity (% modification) (TALEN 102258; C17, with 102260, HepG2-C3a) was 24 and the activity (% modification) (TALEN 102258; C63, with 102260, HepG2-C3a) was 11.
With “GTTGAAGATTGAATTCATAAC (double strand) [102250 site]” the activity (% modification) (TALEN 102250; C17, with 102252, HepG2-C3a) was 32 and the activity (% modification) (TALEN 102250; C63, with 102252, HepG2-C3a) was 8.
“ATAATTGAACATCATCCTGAG (double strand) [102266 site]” was tested, and the activity (% modification) (TALEN 102266) was 10.
With “CCTGTGCTGTTGATCTCATAAATAGAAC (double strand) [locus 3 right site]” the activity (% mutated targets) (ZFN SBS35458) was 4.9 and the activity (% mutated targets) (ZFN SBS35480) was 7.
Work on “ATAAAGCATAGTGCAATGG (double strand) [102256 site]” yielded an activity (% modification) (TALEN 102256; C17, with 102254, HepG2-C3a) of 28 and an activity (% modification) (TALEN 102256; C63, with 102253, HepG2-C3a) of 23.
“TTCATTTTAGTCTGTCTTCTT (double strand) [102261 site]” showed an activity (% modification) (TALEN 102261) of 22.
In the case of “GTTGAAGATTGAATTCATA (double strand) [102249 site]”, the activity (% modification) (TALEN 102249; C17, with 102251, HepG2-C3a) is reported as 15 and the activity (% modification) (TALEN 102249; C63, with 102252, HepG2-C3a) is reported as 8.3.
Sequence “ATAAAGCATAGTGCAATGGAT (double strand) [102255 site]” has an activity (% modification) (TALEN 102255; C17, with 102254, HepG2-C3a) of 43 and an activity (% modification) (TALEN 102255; C63, with 102253, HepG2-C3a) of 21.
For “ATATTGGGCTCTGATTCCTAC (double strand) [102267 site]”, the activity (% modification) (TALEN 102267; C17, with 102265, HepG2-C3a) was 47 and the activity (% modification) (TALEN 102267; C63, with 102265, HepG2-C3a) was 9.8.
“ATTGAATTCATAACTATCCCA (double strand) [102254 site]” gave an activity (% modification) (TALEN 102254; C17, with 102255, HepG2-C3a) of 43 and an activity (% modification) (TALEN 102254; C63, with 102256, HepG2-C3a) of 16.
“GTGCAATGGATAGGTCTTT (double strand) [102251 site]” gave an activity (% modification) (TALEN 102251) of 15.
For “ATTTTAGTCTGTCTTCTTG (double strand) [102262 site]”, the activity (% modification) (TALEN 102262) was 17.
